Where two headings read alike, the source gives them in different places.

For experiment [1], the target named is T1, human PCSK9 (self-cleaved, mature, secreted PCSK9 comprising amino acids 31 to 692 of SEQ ID NO: 2) (human, UniProt Q8NBP7 31-692, biotinylated in the ELISAs).
T1 construct: Limits 31-692 are stated for the immunogen; the assays only say human PCSK9; also called huPCSK9; rhu PCSK9
As to the kind of experiment: solution equilibrium, BIAcore, pH 5.5.

Experiment [2] addresses T1, human PCSK9 (self-cleaved, mature, …). Briefly: solution equilibrium, BIAcore, pH 7.4. On the technique in general: SPR reads the build-up and loss of mass on a sensor chip optically.
Experiment [3] shares this target. Briefly: solution equilibrium, BIAcore.
The target is the same in experiment [4]. Briefly: SPR pH 7.4.
For experiment [5] the target is unchanged. As to the kind of experiment: SPR pH 7.4. The source holds these as a separate data set.
Experiment [6] has the same target. Briefly: SPR pH 7.4. The source holds these as a separate data set.
The target is the same in experiment [7]. As to the kind of experiment: SPR pH 5.5.

B1: SS-15497 (antibody, V domains shown)
VH: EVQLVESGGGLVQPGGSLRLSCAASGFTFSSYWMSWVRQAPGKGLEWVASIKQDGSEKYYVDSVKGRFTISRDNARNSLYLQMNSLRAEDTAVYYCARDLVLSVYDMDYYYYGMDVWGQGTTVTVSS
VL: DIVMTQSPLSLPVTPGEPASISCRSSQSLLHSGNGYNYLDWYLQKPGQSPQLLIYLGLNRASGVPDRFSGSGSGTDFTLKISRVEAEDVGVYYCMQAIHTPLTFGGGTKVEIKR
notes: HC VH6 (M103S, I107M), LC G33 insertion, S57L, L97I, Q98H
The term Kd denotes the free concentration of one partner at which half of the binding sites on the other are occupied at equilibrium, for simple one-to-one binding. Low readings indicate a tighter complex, high ones a looser complex. As usually defined, the koff is the first-order rate constant of dissociation. By kon is commonly meant a measure of how fast the partners come together. Lower therefore signals slow association. On to B1, for which the Kd in experiment [1] worked out at 0.68 nM; in experiment [2], 0.084 nM; in experiment [4], 0.249 nM; in experiment [5], 0.249 nM. In addition, in experiment [3], the “KD ratio pH 5.5/pH 7.4” value was determined as 8.1. Besides, the koff in experiment [4] and in experiment [5] was 9.47e-05 s⁻¹ in each case. Besides, the on-rate (kon) in experiment [4] and in experiment [5] was 381000 M⁻¹ s⁻¹ each time.

B2: SS-15518 (antibody, V domains shown)
VH: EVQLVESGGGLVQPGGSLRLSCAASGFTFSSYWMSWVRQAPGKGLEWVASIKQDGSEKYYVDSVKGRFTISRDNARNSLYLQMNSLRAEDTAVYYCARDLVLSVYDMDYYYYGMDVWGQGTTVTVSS
VL: DIVMTQSPLSLPVTPGEPASISCRSSQSLLHSGNGYNYLDWYLQKPGQSPQLLIYLGNNRASGVPDRFSGSGSGTDFTLKISRVEAEDVGVYYCMQAIHTPLTFGGGTKVEIKR
notes: HC VH6, LC G33, S57N, L97I, Q98H
Consider B2, for which the Kd is 1.2 nM in experiment [1] and 0.14 nM in experiment [2]. Besides, the “KD ratio pH 5.5/pH 7.4” value in experiment [3] was determined as 8.6.

B3: SS-15196 (antibody, V domains shown)
VH: not shown
VL: DIVMTQSPLSLPVTPGEPASISCRSSQSLLHSGNGYNYLDWYLQKPGQSPQLLIYLGLNRASGVPDRFSGSGSGTDFTLKISRVEAEDVGVYYCMQAIHTPLTFGGGTKVEIKR
notes: HC I107M, LC G33 insertion, S57L, L97I, Q98H
Turning to B3, the Kd worked out at 0.57 nM in experiment [1], 0.056 nM in experiment [2], 0.134 nM in experiment [4] and 0.134 nM in experiment [5]. Further, the “KD ratio pH 5.5/pH 7.4” value in experiment [3] was 10.2. Further, the off-rate constant (koff) in experiment [4] and in experiment [5] was 5.06e-05 s⁻¹ throughout. Moreover, the kon in experiment [4] and in experiment [5] was 377000 M⁻¹ s⁻¹ in each case.

B4: SS-15516 (antibody, V domains shown)
VH: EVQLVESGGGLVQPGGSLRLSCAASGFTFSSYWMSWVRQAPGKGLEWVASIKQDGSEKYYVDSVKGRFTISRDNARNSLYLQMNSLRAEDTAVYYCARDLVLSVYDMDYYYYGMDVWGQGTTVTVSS
VL: DIVMTQSPLSLPVTPGEPASISCRSSQSLLHSGNGYNYLDWYLQKPGQSPQLLIYLGFNRASGVPDRFSGSGSGTDFTLKISRVEAEDVGVYYCMQAIHTPLTFGGGTKVEIKR
notes: HC VH6, LC G33, S57F, L97I, Q98H
On to B4, for which the Kd was 1 nM in experiment [1] and 0.12 nM in experiment [2]. The “KD ratio pH 5.5/pH 7.4” value in experiment [3] came to 8.3.

B5: SS-14894 (antibody, V domains shown)
VH: not shown
VL: DIVMTQSPLSLPVTPGEPASISCRSSQSLLHSGNGYNYLDWYLQKPGQSPQLLIYLGLNRASGVPDRFSGSGSGTDFTLKISRVEAEDVGVYYCMQALQTPLTFGGGTKVEIKR
notes: HC I107M, LC G33, S57L
Regarding B5, the Kd came out at 1.5 nM in experiment [1] and 0.17 nM in experiment [2]. For the same molecule, the “KD ratio pH 5.5/pH 7.4” value in experiment [3] amounted to 8.8.

B6: SS-15515 (antibody, V domains shown)
VH: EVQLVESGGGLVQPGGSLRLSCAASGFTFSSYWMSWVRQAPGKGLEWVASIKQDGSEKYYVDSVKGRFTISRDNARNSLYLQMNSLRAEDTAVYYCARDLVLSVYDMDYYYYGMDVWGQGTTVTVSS
VL: DIVMTQSPLSLPVTPGEPASISCRSSQSLLHSGNGYNYLDWYLQKPGQSPQLLIYLGMNRASGVPDRFSGSGSGTDFTLKISRVEAEDVGVYYCMQAIHTPLTFGGGTKVEIKR
notes: HC VH6, LC G33, S57M, L97I, Q98H
In the case of B6, the Kd in experiment [1] stood at 1.5 nM; in experiment [2], 0.12 nM. Further, in experiment [3], the “KD ratio pH 5.5/pH 7.4” value was 12.5.

B7: SS-14835 (antibody, V domains shown)
VH: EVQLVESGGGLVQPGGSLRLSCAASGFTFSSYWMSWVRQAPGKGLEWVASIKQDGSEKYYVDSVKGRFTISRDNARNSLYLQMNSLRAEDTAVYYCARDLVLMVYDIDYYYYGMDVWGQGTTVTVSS
VL: DIVMTQSPLSLPVTPGEPASISCRSSQSLLHSGNGYNYLDWYLQKPGQSPQLLIYLGLNRASGVPDRFSGSGSGTDFTLKISRVEAEDVGVYYCMQAIHTPLTFGGGTKVEIKR
notes: HC WT, LC G33 insertion, S57L/L97I, Q98H
Consider B7, for which the Kd is 3.1 nM in experiment [1], 0.35 nM in experiment [2], 0.534 nM in experiment [4] and 0.534 nM in experiment [5]. The “KD ratio pH 5.5/pH 7.4” value in experiment [3] is 8.9. In addition, the koff in experiment [4] and in experiment [5] was 0.000163 s⁻¹ each time. For the same molecule, the kon in experiment [4] and in experiment [5] was 306000 M⁻¹ s⁻¹ throughout.

B8: SS-15520 (antibody, V domains shown)
VH: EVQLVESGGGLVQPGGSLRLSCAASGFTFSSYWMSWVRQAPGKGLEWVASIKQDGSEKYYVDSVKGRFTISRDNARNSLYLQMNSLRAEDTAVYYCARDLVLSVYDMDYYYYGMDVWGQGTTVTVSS
VL: DIVMTQSPLSLPVTPGEPASISCRSSQSLLHSGNGYNYLDWYLQKPGQSPQLLIYLGQNRASGVPDRFSGSGSGTDFTLKISRVEAEDVGVYYCMQAIHTPLTFGGGTKVEIKR
notes: HC VH6, LC G33, S57Q, L97I, Q98H
Regarding B8, the values for the Kd in experiment [1] and in experiment [2] were 1.2 nM and 0.17 nM, respectively. Also, the “KD ratio pH 5.5/pH 7.4” value in experiment [3] was found to be 7.1.

B9: SS-15519 (antibody, V domains shown)
VH: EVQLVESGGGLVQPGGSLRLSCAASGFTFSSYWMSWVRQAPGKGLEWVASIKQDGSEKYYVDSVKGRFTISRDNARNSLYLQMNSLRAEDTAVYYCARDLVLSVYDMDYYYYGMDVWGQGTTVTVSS
VL: DIVMTQSPLSLPVTPGEPASISCRSSQSLLHSGNGYNYLDWYLQKPGQSPQLLIYLGWNRASGVPDRFSGSGSGTDFTLKISRVEAEDVGVYYCMQAIHTPLTFGGGTKVEIKR
notes: HC VH6, LC G33, S57W, L97I, Q98H
For the molecule B9, the Kd came to 0.86 nM in experiment [1] and 0.083 nM in experiment [2]. In experiment [3], the “KD ratio pH 5.5/pH 7.4” value was 10.4.

B10: SS-13991 (antibody, V domains shown)
VH: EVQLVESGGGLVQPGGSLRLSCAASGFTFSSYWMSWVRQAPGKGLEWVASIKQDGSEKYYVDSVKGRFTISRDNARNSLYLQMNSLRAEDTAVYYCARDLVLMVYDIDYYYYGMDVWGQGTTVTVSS
VL: DIVMTQSPLSLPVTPGEPASISCRSSQSLLHSNGHNYLDWYLQKPGQSPQLLIYLGLNRAHGVPDRFSGSGSGTDFTLKISRVEAEDVGVYYCMQALQTPLTFGGGTKVEIKR
notes: HC WT, LC Tyr38(35)His, Ser68(57)Leu, Ser72(61)His; also called A02
Turning to B10, the Kd was 2.8 nM in experiment [1] and 0.29 nM in experiment [2]. In addition, in experiment [3], the “KD ratio pH 5.5/pH 7.4” value is 9.7.

B11: SS-15195 (antibody, V domains shown)
VH: not shown
VL: DIVMTQSPLSLPVTPGEPASISCRSSQSLLHSNGHNYLDWYLQKPGQSPQLLIYLGLNRAHGVPDRFSGSGSGTDFTLKISRVEAEDVGVYYCMQALQTPLTFGGGTKVEIKR
notes: HC I107M, LC Y35H, S57L, S61H
In the case of B11, the Kd in experiment [1] was 0.45 nM; in experiment [2] it was 0.035 nM; in experiment [4] it was 0.0611 nM; in experiment [5], 0.0611 nM. Also, the “KD ratio pH 5.5/pH 7.4” value in experiment [3] stood at 12.9. For the same molecule, the off-rate (koff) in experiment [4] and in experiment [5] was 1.98e-05 s⁻¹ throughout. Besides, the kon in experiment [4] and in experiment [5] was 325000 M⁻¹ s⁻¹ in each case.

B12: SS-13993 (antibody, V domains shown)
VH: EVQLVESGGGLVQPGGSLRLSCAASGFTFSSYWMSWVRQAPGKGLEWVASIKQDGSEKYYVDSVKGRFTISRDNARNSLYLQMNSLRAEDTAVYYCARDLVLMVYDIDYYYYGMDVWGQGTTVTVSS
VL: DIVMTQSPLSLPVTPGEPASISCRSSQSLLHSNGHNYLDWYLQKPGQSPQLLIYLGLNRASGVPDRFSGSGHGTDFTLKISRVEAEDVGVYYCMQALQTPLTFGGGTKVEIKR
notes: HC WT, LC Tyr38(35)His, Ser68(57)Leu, Ser83(72)His; also called C02
On to B12, for which the Kd in experiment [1] came out at 2.8 nM; in experiment [2] it was 0.23 nM. The “KD ratio pH 5.5/pH 7.4” value in experiment [3] stood at 12.2.

B13: SS-15132 (antibody, V domains shown)
VH: EVQLVESGGGLVKPGGSLRLSCAASGFTFSSYSMNWVRQAPGKGLEWVSSISSSSSYHSYADSVKGRFTISRDNAKNSLYLQMNSLRAEDTAVYFCARDYDFHSAHYDAFDVWGQGTMVTVSS
VL: ESVLTQPPSVSGAPGQRVTISCTGSSSNIGAGYDVHWYQQLPGTAPKLLISGNSNRPSGVPDRFSGSKSGTSASLAITGLQAEDEADYYCQSYDSSLSGSVFGGGTKLTVLG
notes: 31H4 His variant: HC 68(58), 132(106), parental(113H)
Regarding B13, in experiment [6], the affinity, expressed as Kd, was 0.273 nM; the koff was found to be 0.000338 s⁻¹; the kon turned out to be 1.24e+06 M⁻¹ s⁻¹. For the same molecule, the “estimated complex half life pH 5.5” value in experiment [7] was 20 s.

B14: SS-15087 (antibody, V domains shown)
VH: EVQLVESGGGLVKPGGSLRLSCAASGFTFSSYSMNWVRQAPGKGLEWVSSISSSSSYISYADSVKGRFTISRDNAKNSLYLQMNSLRAEDTAVYFCARDYDFHSAHYDAFDVWGQGTMVTVSS
VL: ESVLTQPPSVSGAPGQRVTISCTGSSSNIGAGYDVHWYQQLPGTAPKLLISGNSNRPSGVPDRFSGSKSGTSASLAITGLQAEDEADYYCQSYDSSLHGSVFGGGTKLTVLG
Regarding B14, in experiment [6], the dissociation constant Kd was 0.229 nM, the koff worked out at 0.000288 s⁻¹ and the kon worked out at 1.26e+06 M⁻¹ s⁻¹. In addition, the “estimated complex half life pH 5.5” value in experiment [7] was 100 s.

B15: SS-15114 (antibody, V domains shown)
VH: EVQLVESGGGLVKPGGSLRLSCAASGFTFSSHSMNWVRQAPGKGLEWVSSISSSSSYISYADSVKGRFTISRDNAKNSLYLQMNSLRAEDTAVYFCARDYDFHSAHYDAFDVWGQGTMVTVSS
VL: ESVLTQPPSVSGAPGQRVTISCTGSSSNIGAGYDVHWYQQLPGTAPKLLISGNSNRPSGVPDRFSGSKSGTSASLAITGLQAEDEADYYCQSYDSSLSGSVFGGGTKLTVLG
notes: 31H4 His variant: HC 39(32), 132(106), parental(113H)
In experiment [6], B15 had a Kd of 0.271 nM, a dissociation rate constant (koff) of 0.00015 s⁻¹ and a kon of 555000 M⁻¹ s⁻¹. In addition, the “estimated complex half life pH 5.5” value in experiment [7] was 100 s.

B16: SS-15121 (antibody, V domains shown)
VH: EVQLVESGGGLVKPGGSLRLSCAASGFTFSSYSMNWVRQAPGKGLEWVSSISSHSSYISYADSVKGRFTISRDNAKNSLYLQMNSLRAEDTAVYFCARDYDFHSAHYDAFDVWGQGTMVTVSS
VL: ESVLTQPPSVSGAPGQRVTISCTGSSSNIGAGYDVHWYQQLPGTAPKLLISGNSNRPSGVPDRFSGSKSGTSASLAITGLQAEDEADYYCQSYDSSLSGSVFGGGTKLTVLG
notes: 31H4 His variant: HC 61(54), 132(106), parental(113H); parental LC
In experiment [6], B16 gave a Kd of 0.383 nM, a koff of 0.000563 s⁻¹ and a kon of 1.47e+06 M⁻¹ s⁻¹. Also, the “estimated complex half life pH 5.5” value in experiment [7] was 20 s.

B17: SS-15065 (antibody, V domains shown)
VH: EVQLVESGGGLVKPGGSLRLSCAASGFTFSSYSMNWVRQAPGKGLEWVSSISSSSSYISYADSVKGRFTISRDNAKNSLYLQMNSLRAEDTAVYFCARDYDFHSAHYDAFDVWGQGTMVTVSS
VL: ESVLTQPPSVSGAPGQRVTISCTGSSSNIGAGHDVHWYQQLPGTAPKLLISGNSNRPSGVPDRFSGSKSGTSASLAITGLQAEDEADYYCQSYDSSLSGSVFGGGTKLTVLG
notes: 31H4 His variant: LC 39(32), HC 132(106), parental(113H)
In experiment [6], B17 yielded a Kd of 0.274 nM, a koff of 0.000337 s⁻¹ and a kon of 1.23e+06 M⁻¹ s⁻¹. Further, in experiment [7], the “estimated complex half life pH 5.5” value is 100 s.

The values are drawn from patent US20160032014A1 (Amgen, published 2016).
